From patent US20080311122A1, “Antagonists of Hmgb1 and/or Rage and Methods of Use Thereof” (Medimmune, LLC, priority 2005, published 2008)
Entries after “also recorded” stand apart in the source; their conditions may differ.

B1: S16: human anti-HMG1 antibody, ATCC PTA-6259; VL/VH aa SEQ ID NO: 13/15 (antibody, listed as Homo sapiens, V domains shown)
VH: EVQLLESGGGLVQPGGSLRLSCAASGFTFSWYSMLWVRQAPGKGLEWVSYISPSGGFTNYADSVKGRFTISRDNSKNTLYLQMNSLRAEDTAVYYCARWDYNSGWYYDHWGQGTLVTVSS
VL: AQDIQMTQSPDTLSLSPGERATLSCRASQSVNSRNLAWYQQKPGQAPRLLIYGASTRATGIPDRFSGSVSGTEFTLTISSLQPDDFATYYCQQYNSYFTFGQGTKLEIK
B2: E11: human anti-HMG1 antibody, recognizes HMG1 A-Box; VL/VH aa SEQ ID NO: 24/26 (antibody, listed as Homo sapiens, V domains shown)
VH: EVQLLESGGGLVQPGGSLRLSCAASGFTFSRYQMNWVRQAPGKGLEWVSSISPSGGHTHYADSVKGRFTISRDNSKNTLYLQMNSLRAEDTAVYYCAKDGRQGKISTVDHWGQGTLVTVSS
VL: AQDIQMTQSPGTLSLSPGERATLSCRASQSVRSNFLAWYQQKPGQAPRLLIYGASRRASGIPDRFSGSGFGADFTLSISRLEPEDFAVYYCQQYGSSPNTFGQGSRVEIK

Experiments:
[1] = target: T1, HMG1 (recombinant, native; immobilized, soluble) (Homo sapiens, UniProt P09429); assay: Direct and sandwich (capture) ELISA comparing forms of HMG1; assay type: binding; conditions: capture ELISA
T1 construct: made in house; host or cells: E. coli
T1 sequence (P09429 1-215): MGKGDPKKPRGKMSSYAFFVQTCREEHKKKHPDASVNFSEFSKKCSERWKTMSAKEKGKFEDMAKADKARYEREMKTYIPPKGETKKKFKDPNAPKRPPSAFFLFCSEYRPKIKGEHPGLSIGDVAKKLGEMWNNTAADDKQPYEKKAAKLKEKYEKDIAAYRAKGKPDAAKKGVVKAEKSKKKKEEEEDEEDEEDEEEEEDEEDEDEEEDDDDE
In short: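 Direct format: HMGB-1 coated at 5 μg/ml, human anti-HMG1 antibodies titrated, anti-human IgG-HRP, A450. Sandwich format: antibodies (from 20 μg/ml, serial dilutions) captured on anti-human IgG Fc, then soluble HMGB1 at 2 μg/ml (native 0.7 μg/ml), mouse anti-HMGB1 at 1 μg/ml, anti-mouse IgG-HRP, A450; steps 1 h, 37° C.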

[2] = target: T2, native (thymus) HMG1 binding to RAGE/Fc (Bos taurus, UniProt P10103); assay: Inhibition of native HMG1 binding to Rage-Fc (ELISA); set-up: species or system bovine; conditions: at the concentrations tested
T2 construct: from tissue; host or cells: bovine (calf) thymus
T2 sequence (P10103 2-215 limits assumed): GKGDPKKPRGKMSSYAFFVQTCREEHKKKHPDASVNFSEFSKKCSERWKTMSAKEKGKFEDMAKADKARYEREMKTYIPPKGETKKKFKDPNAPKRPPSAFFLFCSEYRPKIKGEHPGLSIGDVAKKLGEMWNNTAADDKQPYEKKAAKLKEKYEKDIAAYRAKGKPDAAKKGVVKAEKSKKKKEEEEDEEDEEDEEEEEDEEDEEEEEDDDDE
Experimental: Inhibition of Native HMG1 Binding to Rage-Fc: Recombinant RAGE/Fc was coated on ELISA plate at 5 μg/mL, 0.1 mL/well. HMGB1 (0.5 μg/mL) was pre-incubated with anti-HMGB1 mAb clone E-11 or G-4 at different concentrations for 0.5 hr. After blocking the plate, anti-HMGB1 mAb pre-incubated HMGB1 was added to RAGE/Fc coated plate for 2 hr. RAGE bound HMGB1 was detected with Biotin labeled anti-HMGB1 pAb.

[3] = tested on: heat inactivated S. aureus induced peritonitis; assay: S. aureus mouse model of peritonitis; assay type: in vivo
Experimental: Induction of Peritonitis: Four-six week old female BALB/c mice were used. […] For determination of HMG1 levels on day 0 approximately 10^9 heat inactivated S. aureus (strain 8325-4) cells premixed with 20 mg of galactosamine or galactosamine alone in a 200 μl volume of PBS was administered i.p. A third group of animals was not challenged. Animals were euthanized at 2, 8, and 12 hours after challenge by CO2 inhalation and blood was collected by cardiac puncture. For the antibody treatment studies on day 0 approximately 10^9 heat inactivated S. aureus (strain 8325-4) cells premixed with 20 mg of galactosamine were administered i.p. in a 200 μl volume and the following treatments were administered i.p. in a 100 μl volume 30 minutes prior to challenge as shown in Table 7.
The animals were also weighed 2× weekly. Animals showing signs of significant morbidity were euthanized. On day 15 all surviving animals were euthanized (euthanized sooner if significant morbidity observed).

[4] = tested on: CpG2216+thymus HMG1 induced IFN-a release (TLR9 signaling); assay: Inhibition of HMG1 mediated enhancement of TLR9 signaling, CpG2216 + thymus HMG1 in bone marrow cells; assay type: cell-based; conditions: mouse bone marrow cells
Experimental: HMGB1+TLR Ligand: Freshly isolated bone marrow cells were stimulated with TLR ligands (TLR3:PolyIC@5 μg/mL; TLR4:LPS@2.5 ng/mL; TLR5:flagellin@0.25 μg/mL; TLR7:polyU@4 μg/mL or R837@5 μg/mL; TLR9:CpG2216@1 μM) with or without presence of thymus HMGB1 (10 μg/mL) for 24 hr. Cytokines in the supernatant were measured by ELISA.
Inhibition of HMG1 Mediated Enhancement of TLR Signaling: Freshly isolated bone marrow cells were stimulated with TLR9 ligand CpG2216 (0.3 μM) and thymus HMGB1 (10 μg/mL) in the presence of different concentration of the anti-HMGB1 mAb E11 or control human IgG for 24 hr and IFN-a in the supernatant was measured by ELISA. CpG2216, HMGB1 and nonstimulatory DNA were used alone or in combination as controls for the assay.

[5] = tested on: LPS+HMG1 induced TNF-a release (TLR4 signaling); assay: Inhibition of HMG1 mediated enhancement of TLR4 signaling, LPS+HMG1 TNF-a release; assay type: cell-based, mouse

Molecule	binding to native nuclear, necrotic (released) and activated HMG1 [1]	block of native (thymus) HMG1 binding to RAGE [2]	mice survived ([3]; lethal dose of heat inactivated S. aureus)	in vivo S. aureus ([3]; percent protection, isotype control subtracted)	inhibition of IFN-a release induced by CpG + thymus HMG1 [4]	inhibition of IFN-a release induced by CpG alone [4]	inhibition of TNF-a release induced by LPS+HMG1 [5]	inhibition of signaling by LPS alone [5]
B1	little difference in binding to the various native forms of HMG1	–	–	–	–	–	–	–
B2	–	significant ability to block the binding of native HMG1 to RAGE; also recorded: can block native HMG1 binding	8%	8%	could be blocked; also recorded: inhibited the release of INF-a induced by CpG2216+thymus HMG1	not blocked; also recorded: Neither E11, G4 or Rage/Fc inhibited	inhibits the release of TNF-a induced by LPS+HMG1; also recorded: could be blocked; also recorded: inhibit the release of TNFa induced by LPS+HMG1	inhibit signaling by LPS alone
